{"source": "paper PMC6694467", "target": "monomeric PKG Iβ that lacks the dimerization domain", "experiment": "crystal structure; PKG Iβ holoenzyme lacking the dimerization domain, 2.3 Å; inhibited state", "data": [{"substance": "monomeric PKG Iβ that lacks the dimerization domain (domain or fragment)", "values": [{"measurement": "stoichiometry N", "value": 2}]}]}
